Reference: patent publication US20230235005A1 (INHIBRX, published 2023)
Where two headings read alike, the source gives them in different places.

T1: IL-2 receptor overexpressed on HEK-Blue IL-2 reporter cells (InvivoGen) (UniProt P01589 22-272; P14784 27-551; P31785 23-369, limits assumed)
T1 sequence (looked up) 1: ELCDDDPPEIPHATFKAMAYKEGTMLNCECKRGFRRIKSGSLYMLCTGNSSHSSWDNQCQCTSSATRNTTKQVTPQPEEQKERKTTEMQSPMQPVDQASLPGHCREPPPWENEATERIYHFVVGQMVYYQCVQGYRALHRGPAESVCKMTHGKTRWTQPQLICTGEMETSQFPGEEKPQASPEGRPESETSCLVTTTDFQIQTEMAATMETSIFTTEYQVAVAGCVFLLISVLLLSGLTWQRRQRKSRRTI
T1 sequence (looked up) 2: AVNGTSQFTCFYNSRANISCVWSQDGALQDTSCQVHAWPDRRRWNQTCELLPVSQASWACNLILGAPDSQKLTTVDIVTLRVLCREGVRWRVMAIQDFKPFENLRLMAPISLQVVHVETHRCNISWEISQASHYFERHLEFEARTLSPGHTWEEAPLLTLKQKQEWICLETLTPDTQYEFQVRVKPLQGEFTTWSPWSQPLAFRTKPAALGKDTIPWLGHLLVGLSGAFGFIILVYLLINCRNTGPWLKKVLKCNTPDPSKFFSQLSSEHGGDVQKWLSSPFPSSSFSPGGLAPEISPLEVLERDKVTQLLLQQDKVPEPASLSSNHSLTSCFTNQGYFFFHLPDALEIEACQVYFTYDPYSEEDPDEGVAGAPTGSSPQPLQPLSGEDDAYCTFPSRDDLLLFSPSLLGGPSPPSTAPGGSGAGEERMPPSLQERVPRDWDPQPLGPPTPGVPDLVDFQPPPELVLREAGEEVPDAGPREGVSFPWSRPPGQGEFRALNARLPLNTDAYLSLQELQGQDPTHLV
T1 sequence (looked up) 3: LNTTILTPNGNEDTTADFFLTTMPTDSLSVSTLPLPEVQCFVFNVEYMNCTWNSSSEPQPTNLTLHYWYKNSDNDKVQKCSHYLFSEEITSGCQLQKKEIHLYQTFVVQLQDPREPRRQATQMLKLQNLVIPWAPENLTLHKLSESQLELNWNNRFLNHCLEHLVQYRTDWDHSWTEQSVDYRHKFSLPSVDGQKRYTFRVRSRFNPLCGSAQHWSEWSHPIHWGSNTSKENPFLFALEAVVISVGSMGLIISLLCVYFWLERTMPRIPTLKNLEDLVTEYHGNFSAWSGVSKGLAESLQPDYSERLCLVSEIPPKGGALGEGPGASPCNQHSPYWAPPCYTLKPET

T2: Histidine-tagged CD25 (UniProt P01589 22-217, limits assumed)
T2 construct: Immobilized in Biolayer Interferometry (ForteBio); not shown: histidine tag
T2 sequence (looked up): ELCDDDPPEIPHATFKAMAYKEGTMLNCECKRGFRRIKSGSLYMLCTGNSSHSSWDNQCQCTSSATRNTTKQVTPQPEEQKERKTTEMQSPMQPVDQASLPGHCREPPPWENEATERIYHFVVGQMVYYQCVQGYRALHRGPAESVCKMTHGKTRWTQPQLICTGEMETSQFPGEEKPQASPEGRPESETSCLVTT


What was measured:
[1] = molecular target: T1, IL-2 receptor overexpressed on HEK-Blue …; test: cell-based or functional assay
[2] = molecular target: T3, PD-1 expressed on modified HEK-Blue IL-2 reporter cell clones (UniProt Q15116 25-288, limits assumed); test: cell-based or functional assay
Histidine-tagged CD25 = molecular target: T2, Histidine-tagged CD25; test: Biolayer Interferometry (ForteBio), immobilized His-tagged CD25
Protocol: Polypeptides comprising a modified IL-2 fused to the C-terminus of a PD-1 binding VHH and control polypeptides were tested for binding to CD25 using Biolayer Interferometry (ForteBio).

[3] = molecular target: IL-2 receptor together with PD-1 on HEK-Blue IL-2 reporter cells expressing PD-1 (UniProt P01589); test: cell-based or functional assay
[4] = molecular target: trimeric IL-2 receptor on HEK-Blue IL-2 reporter cells (UniProt P01589); test: cell-based or functional assay
[5] = molecular target: trimeric IL-2 receptor (CD25, CD122, CD132) on HEK-Blue IL-2 reporter cells (UniProt P01589); test: cell-based or functional assay
[6] = molecular target: T1, IL-2 receptor overexpressed on HEK-Blue …; test: cell-based or functional assay; remark: listed apart in the source
[7] = molecular target: T3, PD-1 expressed on modified HEK-Blue …; test: cell-based or functional assay; remark: listed apart in the source
[8] = molecular target: T1, IL-2 receptor overexpressed on HEK-Blue …; test: cell-based or functional assay; remark: listed apart in the source
[9] = molecular target: T3, PD-1 expressed on modified HEK-Blue …; test: cell-based or functional assay; remark: listed apart in the source
[10] = molecular target: T1, IL-2 receptor overexpressed on HEK-Blue …; test: cell-based or functional assay; remark: listed apart in the source
[11] = molecular target: T3, PD-1 expressed on modified HEK-Blue …; test: cell-based or functional assay; remark: listed apart in the source
[12] = molecular target: T3, PD-1 expressed on modified HEK-Blue …; test: cell-based or functional assay; remark: listed apart in the source
[13] = molecular target: T1, IL-2 receptor overexpressed on HEK-Blue …; test: cell-based or functional assay; remark: listed apart in the source
[14] = molecular target: T3, PD-1 expressed on modified HEK-Blue …; test: cell-based or functional assay; remark: listed apart in the source
[15] = molecular target: T1, IL-2 receptor overexpressed on HEK-Blue …; test: cell-based or functional assay; remark: listed apart in the source
[16] = molecular target: T3, PD-1 expressed on modified HEK-Blue …; test: cell-based or functional assay; remark: listed apart in the source
[17] = molecular target: T1, IL-2 receptor overexpressed on HEK-Blue …; test: cell-based or functional assay; remark: listed apart in the source

Chain of IL-2 receptor together with PD-1 on HEK-Blue IL-2 reporter cells expressing PD-1 (Q15116 25-288 limits assumed): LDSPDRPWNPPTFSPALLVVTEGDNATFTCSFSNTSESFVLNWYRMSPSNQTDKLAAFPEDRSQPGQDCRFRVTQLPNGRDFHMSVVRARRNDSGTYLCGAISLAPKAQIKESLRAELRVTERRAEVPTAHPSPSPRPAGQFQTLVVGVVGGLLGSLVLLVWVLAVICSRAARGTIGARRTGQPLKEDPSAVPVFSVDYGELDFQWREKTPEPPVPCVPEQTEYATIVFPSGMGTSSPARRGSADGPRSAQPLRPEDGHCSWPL
T3 sequence (Q15116 25-288 limits assumed): as above

Binder	EC50 (nM), HEK-Blue IL-2 reporter cells lacking PD-1 [1] [nM]	EC50 (nM), IL-2 reporter cells expressing PD-1 [2] [nM]	binding result (Histidine-tagged CD25)	further results
polypeptide comprising modified IL-2 (T3A, H16A, E61R, P65R, D84Y, C125S) fused to the C-terminus of a CD8a-binding VHH (protein, part only; not given: CD8a-binding VHH and any linker or Fc, part only) chain, part: APASSSTKKTQLQLEALLLDLQMILNGINNYKNPKLTRMLTFKFYMPKKATELKHLQCLERELKRLEEVLNLAQSKNFHLRPRYLISNINVIVLELKGSETTFMCEYADETATIVEFLNRWITFSQSIISTLT	–	–	–	CD8a Targeted EC50, IL-2 reporter cells expressing CD8a (secreted alkaline phosphatase) [5]: 11 pM; Non-targeted EC50, HEK-Blue IL-2 reporter cells lacking PD-1, NKp46 and CD8a (secreted alkaline phosphatase) [5]: 4520 pM
polypeptide comprising modified IL-2 (T3A, H16A, P65R, D84S, C125S) fused to the C-terminus of a PD-1-binding VHH (other, not shown: a dimerising Fc or GST; small tags and cut ends) APASSSTKKTQLQLEALLLDLQMILNGINNYKNPKLTRMLTFKFYMPKKATELKHLQCLEEELKRLEEVLNLAQSKNFHLRPRSLISNINVIVLELKGSETTFMCEYADETATIVEFLNRWITFSQSIISTLT	0.9	0.001	–	EC50 (nM), HEK-Blue IL-2 [6]: 0.512 nM; EC50 (nM), HEK-Blue IL-2 + PD-1 [7]: 0.001 nM; EC50 (nM), HEK-Blue IL-2 [8]: 0.512 nM; EC50 (nM), HEK-Blue IL-2 + PD-1 [9]: 0.001 nM; EC50 (nM), HEK-Blue IL-2 [10]: 0.3 nM; EC50 (nM), HEK-Blue IL-2 + PD-1 [11]: 0.003 nM; EC50 (nM), IL-2 reporter cells expressing PD-1 [12]: 0.001 nM; EC50 (nM), HEK-Blue IL-2 [13]: 0.512 nM; EC50 (nM), HEK-Blue IL-2 + PD-1 [14]: 0.001 nM; EC50 (nM), HEK-Blue IL-2 [15]: 0.3 nM; EC50 (nM), HEK-Blue IL-2 + PD-1 [16]: 0.003 nM; EC50 (nM), HEK-Blue IL-2 reporter cells lacking PD-1 [17]: 0.9 nM
polypeptide comprising modified IL-2 (T3A, H16A, F42R, P65R, D84S, C125S) fused to the C-terminus of a PD-1-binding VHH (other, not shown: a dimerising Fc or GST; small tags and cut ends) APASSSTKKTQLQLEALLLDLQMILNGINNYKNPKLTRMLTRKFYMPKKATELKHLQCLEEELKRLEEVLNLAQSKNFHLRPRSLISNINVIVLELKGSETTFMCEYADETATIVEFLNRWITFSQSIISTLT	2.1	0.003	–	–
polypeptide comprising modified IL-2 (T3A, H16A, R38A, P65R, D84S, C125S) fused to the C-terminus of a PD-1-binding VHH (other, not shown: a dimerising Fc or GST; small tags and cut ends) APASSSTKKTQLQLEALLLDLQMILNGINNYKNPKLTAMLTFKFYMPKKATELKHLQCLEEELKRLEEVLNLAQSKNFHLRPRSLISNINVIVLELKGSETTFMCEYADETATIVEFLNRWITFSQSIISTLT	2	0.002	no binding (tested: 300 nM)	PD-1 Targeted EC50 [3]: 2 pM; PD-1 Window [3]: 978; Non-targeted EC50 [4]: 1970 pM

More lines, main results first:

EC50 (nM), HEK-Blue IL-2 reporter cells lacking PD-1 [1] [nM]	EC50 (nM), IL-2 reporter cells expressing PD-1 [2] [nM]	binding result (Histidine-tagged CD25)	Binder	further results
4.2	0.005	no binding (tested: 300 nM)	polypeptide comprising modified IL-2 (T3A, H16A, Δ42, P65R, D84S, C125S) fused to the C-terminus of a PD-1-binding VHH (other, not shown: a dimerising Fc or GST; small tags and cut ends, also called IL-2-T3A-H16A-ΔF42-P65R-D84S-C125S) APASSSTKKTQLQLEALLLDLQMILNGINNYKNPKLTRMLTKFYMPKKATELKHLQCLEEELKRLEEVLNLAQSKNFHLRPRSLISNINVIVLELKGSETTFMCEYADETATIVEFLNRWITFSQSIISTLT	–
3.2	0.002	no binding (tested: 300 nM)	polypeptide comprising modified IL-2 (T3A, H16A, E61R, P65R, D84S, C125S) fused to the C-terminus of a PD-1-binding VHH (other, not shown: a dimerising Fc or GST; small tags and cut ends) APASSSTKKTQLQLEALLLDLQMILNGINNYKNPKLTRMLTFKFYMPKKATELKHLQCLERELKRLEEVLNLAQSKNFHLRPRSLISNINVIVLELKGSETTFMCEYADETATIVEFLNRWITFSQSIISTLT	PD-1 Targeted EC50 [3]: 2 pM; PD-1 Window [3]: 1570; Non-targeted EC50 [4]: 3180 pM
1.1	0.001	no binding (tested: 300 nM)	polypeptide comprising modified IL-2 (T3A, H16A, K43E, P65R, D84S, C125S) fused to the C-terminus of a PD-1-binding VHH (other, not shown: a dimerising Fc or GST; small tags and cut ends) APASSSTKKTQLQLEALLLDLQMILNGINNYKNPKLTRMLTFEFYMPKKATELKHLQCLEEELKRLEEVLNLAQSKNFHLRPRSLISNINVIVLELKGSETTFMCEYADETATIVEFLNRWITFSQSIISTLT	–
1.4	0.002	no binding (tested: 300 nM)	polypeptide comprising modified IL-2 (T3A, H16A, P65R, D84S, I114F, C125S) fused to the C-terminus of a PD-1-binding VHH (other, not shown: a dimerising Fc or GST; small tags and cut ends) APASSSTKKTQLQLEALLLDLQMILNGINNYKNPKLTRMLTFKFYMPKKATELKHLQCLEEELKRLEEVLNLAQSKNFHLRPRSLISNINVIVLELKGSETTFMCEYADETATFVEFLNRWITFSQSIISTLT	–
1.5	0.002	no binding (tested: 300 nM)	polypeptide comprising modified IL-2 (T3A, H16A, K43E, Y45R, P65R, D84S, C125S) fused to the C-terminus of a PD-1-binding VHH (other, not shown: a dimerising Fc or GST; small tags and cut ends) APASSSTKKTQLQLEALLLDLQMILNGINNYKNPKLTRMLTFEFRMPKKATELKHLQCLEEELKRLEEVLNLAQSKNFHLRPRSLISNINVIVLELKGSETTFMCEYADETATIVEFLNRWITFSQSIISTLT	–
